Assay results reported in patent US20130084301A1.

Columns and labels:
CD81 = CD81 (UniProt P60033); assay: cell-based or functional assay
[1] = target: HCV E2 glycoprotein, genotype 1a (H77c) (hepatitis C virus genotype 1a, H77c) (UniProt P27958)
[2] = target: E2 of genotype 1a HCVcc (hepatitis C virus genotype 1a); assay: cell-based or functional assay

Sequence of CD81 (P60033 whole entry): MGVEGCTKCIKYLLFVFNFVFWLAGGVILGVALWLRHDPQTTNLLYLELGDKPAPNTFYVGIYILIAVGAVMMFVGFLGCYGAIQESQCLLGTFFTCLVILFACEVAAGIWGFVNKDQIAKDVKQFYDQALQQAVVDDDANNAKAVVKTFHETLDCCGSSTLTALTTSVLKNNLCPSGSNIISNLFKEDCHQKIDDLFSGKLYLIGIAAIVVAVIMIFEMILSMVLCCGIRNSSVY

| Substance | reduction in viral infectivity, mutant 1a HCVpp (luciferase) (CD81) [%] | % reduction of E2 binding to CD81 [1] [%] | 50% inhibition, neutralization of 1a HCVcc [2] [µg/mL] |
| --- | --- | --- | --- |
| HCV 1a E2 with alanine substitution at 443 (from UniProt P27958 384-746) | 79 |  |  |
| HCV 1a E2 with alanine substitution at 420 (from UniProt P27958 384-746) | > 95 |  |  |
| HCV 1a E2 with alanine substitution at 437 (from UniProt P27958 384-746) | > 95 |  |  |
| HCV 1a E2 with alanine substitution at 613 (from UniProt P27958 384-746) | > 95 |  |  |
| HCV 1a E2 with alanine substitution at 429 (from UniProt P27958 384-746) | > 95 |  |  |
| CBH-5 (antibody) |  | > 90 | > 100 |
| HCV 1a E2 with alanine substitution at 441 (from UniProt P27958 384-746) | > 95 |  |  |
| HCV 1a E2 with alanine substitution at 428 (from UniProt P27958 384-746) | 84 |  |  |
| HCV 1a E2 with alanine substitution at 446 (from UniProt P27958 384-746) | 60 |  |  |
| HCV 1a E2 with alanine substitution at 442 (from UniProt P27958 384-746) | > 95 |  |  |
| HCV 1a E2 with alanine substitution at 616 (from UniProt P27958 384-746) | > 95 |  |  |
